Substitutions are numbered along the chain they refer to.
B1: TCR2-2 (TCR, V domains shown)
V domain 1: GAVVSQHPSRVICKSGTSVKIECRSLDFQATTMFWYRQFPKKSLMLMATSNEGSKATYEQGVEKDKFLINHASLTLSTLTVTSAHPEDSSFYICSARAGGDTFGSGTRLTVVE
V domain 2: AQSVTQLDSHVSVSEGTPVLLRCNYSSSYSPSLFWYVQHPNKGLQLLLKYTSAATLVKGINGFEAEFKKSETSFHLTKPSAHMSDAAEYFCVVSVNDYKLSFGAGTTVTVRA
notes: also called TCR having feature (D)
B2: TCR5-2 (TCR, V domains shown)
V domain 1: B1 V domain 1 with R97K, G99S, G100E, D101Q, T102Y, S105P, V112T
V domain 2: SQQGEEDPQALSIQEGENATMNCSYKTSINNLQWYRQNSGRGLVHLILIRSNEREKHSGRLRVTLDTSKKSSSLLITASRAADTASYFCAADNYGQNFVFGPGTRLSVLP
notes: also called TCR having feature (F)
B3: TCR5-3 (TCR, V domains shown)
V domain 1: GVTQTPKFRVLKTGQSMTLLCAQDMNHEYMYWYRQDPGMGLRLIHYSVGEGTTAKGEVPDGYNVSRLKKQNFLLGLESAAPSQTSVYFCASSYSRDRGWSEAFFGQGTRLTVVE
V domain 2: AQKVTQAQTEISVVEKEDVTLDCVYETRDTTYYLFWYKQPPSGELVFLIRRNSFDEQNEISGRYSWNFQKSTSSFNFTITASQVVDSAVYFCALNVMNRDDKIIFGKGTRLHILP
notes: also called TCR having feature (G)
B4: TCR1-2 (TCR, V domains shown)
V domain 1: GAVVSQHPSRVICKSGTSVKIECRSLDFQATTMFWYRQFPKKSLMLMATSNEGSKATYEQGVEKDKFLINHASLTLSTLTVTSAHPEDSSFYICSARYGEVAFFGQGTRLTVVE
V domain 2: GENVEQHPSTLSVQEGDSAVIKCTYSDSASNYFPWYKQELGKGPQLIIDIRSNVGEKKDQRIAVTLNKTAKHFSLHITETQPEDSAVYFCAASRDNNDMRFGAGTRLTVKP
notes: also called TCR having feature (B)
B5: TCR2-1 (TCR, V domains shown)
V domain 1: EAQVTQNPRYLITVTGKKLTVTCSQNMNHEYMSWYRQDPGLGLRQIYYSMNVEVTDKGDVPEGYKVSRKEKRNFPLILESPSPNQTSLYFCASSPGLAGGVEQFFGPGTRLTVLE
V domain 2: RKEVEQDPGPFNVPEGATVAFNCTYSNSASQSFFWYRQDCRKEPKLLMSVYSSGNEDGRFTAQLNRASQYISLLIRDSKLSDSATYLCVVNIGFGNVLHCGSGTQVIVLP
notes: also called TCR having feature (C)

Molecular target: PE-labeled HLA-A*02:01/Taxp11-19 ([…]) tetramer (human; HTLV-1)
Assay: tetramer staining of TCR-transduced human PBMCs, flow cytometry

Binder	percent TCR-positive (tetramer-positive) CD4-positive cells among transfected cells	percent TCR-positive (tetramer-positive) CD8-positive cells among transfected cells
B1	≥ 5%	≥ 10%
B2	≥ 5%	≥ 10%
B3	≥ 5%	≥ 10%
B4	≥ 5%	≥ 10%
B5	≥ 5%	≥ 10%
